Assay results from patent US7250195B1, “Molecular plasma deposition of colloidal materials” (Ionic Fusion Corporation, priority 2006, dated 2007).
Converted amounts (≈) assume the structure as drawn.

What was measured:
[1] = cited from earlier work
[2] = catalysis of 5% hydrogen peroxide solution by plasma-deposited catalase coating; type: biochemical, bovine; conditions: for catalytic activity after molecular plasma deposition: deposited 10 min on aluminum oxide disk, placed in 5% hydrogen peroxide
Description: Using the apparatus illustrated in FIG. 2, the high voltage power supply was attached to a 304 stainless steel, 18 gauge needle set at −5000V. The substrate was an aluminum oxide disk ¼″ thick by 1.5″ in diameter, having an area of approximately 11 sq cm and set at a potential of 5000 V. The substrate was centered and placed 5 cm from the hole in the chamber. The chamber was pumped to 40 mTorr and the flow of the colloidal suspension initiated. The deposition onto the substrate was allowed to proceed for 10 minutes. At the end of the deposition process, the substrate was removed from the chamber and the sample was placed in a 5% solution of hydrogen peroxide.
The deposition was repeated twice under the same conditions, except that after the substrate was removed from the chamber, the samples were placed in an ultrasonic water bath for 10 min. Additionally, one of the samples was maintained at 10° C. for 72 hr after removal from the bath.

[3] = activity of the catalase colloidal suspension before deposition; type: biochemical, bovine; conditions: colloidal suspension in water with 0.1% thymol, protein 33 mg/ml
Method: 25 ml of a 2× crystallized bovine liver catalase (Sigma C100-58MG; 056K7010) colloidal suspension in water with 0.1% thymol was prepared. Protein concentration was 33 mg/ml with an activity of 4.1×10^4 U/ml.

## Nc1cc[nH]c(=O)n1 [cytosine]
[1]
  water solubility: insoluble

## Nc1nc2nc[nH]c2c(=O)[nH]1 [guanine]
[1]
  water solubility: insoluble

## Nc1ncnc2nc[nH]c12 [adenine]
[1]
  water solubility: 500 µg/mL (≈ 3.7 mM)

## NCCCC[C@H](N)C(=O)O [Lysine]
[1]
  water solubility (in words): highly water soluble

B1: catalase: 2× crystallized bovine liver catalase (Sigma C100-58MG; 056K7010), a polypeptide enzyme (protein, UniProt P00432 2-527, looked up)
Catalase: ADNRDPASDQMKHWKEQRAAQKPDVLTTGGGNPVGDKLNSLTVGPRGPLLVQDVVFTDEMAHFDRERIPERVVHAKGAGAFGYFEVTHDITRYSKAKVFEHIGKRTPIAVRFSTVAGESGSADTVRDPRGFAVKFYTEDGNWDLVGNNTPIFFIRDALLFPSFIHSQKRNPQTHLKDPDMVWDFWSLRPESLHQVSFLFSDRGIPDGHRHMNGYGSHTFKLVNANGEAVYCKFHYKTDQGIKNLSVEDAARLAHEDPDYGLRDLFNAIATGNYPSWTLYIQVMTFSEAEIFPFNPFDLTKVWPHGDYPLIPVGKLVLNRNPVNYFAEVEQLAFDPSNMPPGIEPSPDKMLQGRLFAYPDTHRHRLGPNYLQIPVNCPYRARVANYQRDGPMCMMDNQGGAPNYYPNSFSAPEHQPSALEHRTHFSGDVQRFNSANDDNVTQVRTFYLKVLNEEQRKRLCENIAGHLKDAQLFIQKKAVKNFSDVHPEYGSRIQALLDKYNEEKPKNAVHTYVQHGSHLSAREKANL
[2]; coated sample in ultrasonic water bath 10 min, then 5% hydrogen peroxide
  catalytic activity after deposition and ultrasonic water bath: produced bubbling of oxygen from the surface of the substrate
[2]
  catalytic activity after molecular plasma deposition: producing bubbling of oxygen from the surface
[2]; listed as Catalase
  catalytic activity after molecular plasma deposition: without loss of catalytic activity
[2]; ultrasonic water bath 10 min, then 10° C. for 72 hr, then 5% hydrogen peroxide
  catalytic activity after deposition, ultrasonic water bath and storage: produced bubbling of oxygen from the surface of the substrate
[3]
  activity of suspension: 4.1×10^4 U/ml
